Experimental data published in US20120244164A1 (published 2012).
Where a chain is given by its changes, count along the chain named. In names and notes the source's numbering stands.

Key:
Human c-Met [1] = target: T1, Human c-Met (human, UniProt P08581 25-1390); assay: cell-based or functional assay
cynomolgus c-Met = target: T2, cynomolgus c-Met (cynomolgus monkey, UniProt A0M8R7 25-1381 (Papio anubis entry)); assay: competition FACS: 0.5 nM biotinylated HGF on BAF3 cells with cynomolgus c-Met
T2 construct: also called cynomolgus monkey c-Met; cyno c-Met
T2 sequence (A0M8R7 25-1381 S170N/I621T limits assumed): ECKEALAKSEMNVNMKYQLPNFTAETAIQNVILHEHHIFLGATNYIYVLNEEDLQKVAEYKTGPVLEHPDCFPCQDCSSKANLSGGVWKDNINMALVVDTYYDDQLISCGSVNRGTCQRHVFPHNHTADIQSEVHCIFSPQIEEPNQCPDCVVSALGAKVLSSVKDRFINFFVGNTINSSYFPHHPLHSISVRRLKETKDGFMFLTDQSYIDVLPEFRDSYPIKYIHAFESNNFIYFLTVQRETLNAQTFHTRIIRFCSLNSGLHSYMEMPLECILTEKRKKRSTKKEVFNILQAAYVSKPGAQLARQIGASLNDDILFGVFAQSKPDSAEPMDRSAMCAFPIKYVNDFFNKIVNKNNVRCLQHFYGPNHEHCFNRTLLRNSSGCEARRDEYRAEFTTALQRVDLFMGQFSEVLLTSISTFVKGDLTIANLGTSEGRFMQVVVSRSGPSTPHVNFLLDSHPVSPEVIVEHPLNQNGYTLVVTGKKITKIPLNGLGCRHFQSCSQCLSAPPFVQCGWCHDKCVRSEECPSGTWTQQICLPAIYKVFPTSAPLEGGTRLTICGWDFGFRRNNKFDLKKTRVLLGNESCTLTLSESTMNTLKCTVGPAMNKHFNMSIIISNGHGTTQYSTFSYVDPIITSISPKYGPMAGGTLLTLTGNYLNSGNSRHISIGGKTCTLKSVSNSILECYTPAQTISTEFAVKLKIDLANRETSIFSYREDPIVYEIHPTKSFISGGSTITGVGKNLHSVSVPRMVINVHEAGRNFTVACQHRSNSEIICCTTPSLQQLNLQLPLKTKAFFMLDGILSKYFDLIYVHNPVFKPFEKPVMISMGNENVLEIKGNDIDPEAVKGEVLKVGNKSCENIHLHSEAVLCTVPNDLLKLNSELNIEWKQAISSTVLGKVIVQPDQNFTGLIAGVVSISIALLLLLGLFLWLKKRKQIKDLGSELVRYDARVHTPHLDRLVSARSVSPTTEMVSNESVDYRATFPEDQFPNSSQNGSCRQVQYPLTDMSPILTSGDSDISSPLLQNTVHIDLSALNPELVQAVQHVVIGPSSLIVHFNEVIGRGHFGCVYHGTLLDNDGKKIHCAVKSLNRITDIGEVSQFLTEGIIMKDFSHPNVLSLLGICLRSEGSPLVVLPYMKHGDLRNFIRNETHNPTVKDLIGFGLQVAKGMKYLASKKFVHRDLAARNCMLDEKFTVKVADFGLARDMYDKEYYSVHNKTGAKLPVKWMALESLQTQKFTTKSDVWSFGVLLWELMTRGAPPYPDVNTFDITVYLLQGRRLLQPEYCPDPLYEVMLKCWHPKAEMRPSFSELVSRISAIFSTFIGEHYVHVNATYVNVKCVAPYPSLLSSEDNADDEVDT
Experimental: Cells were analyzed on a FACSarray flow cytometer as described in earlier examples.

Human c-Met [2] = target: T1, Human c-Met; assay: cell-based or functional assay; remark: listed apart in the source
[3] = target: T3, recombinant human c-Met/Fc chimera (R&D systems) (human); assay: HGF-competition Alphascreen, EXP 1
T3 construct: R&D Systems 358-MT/CF, expressed in NS0 cells; also called hc-Met/Fc; hu c-Met/Fc
T3 sequence (chain, as listed by the source mutant limits assumed): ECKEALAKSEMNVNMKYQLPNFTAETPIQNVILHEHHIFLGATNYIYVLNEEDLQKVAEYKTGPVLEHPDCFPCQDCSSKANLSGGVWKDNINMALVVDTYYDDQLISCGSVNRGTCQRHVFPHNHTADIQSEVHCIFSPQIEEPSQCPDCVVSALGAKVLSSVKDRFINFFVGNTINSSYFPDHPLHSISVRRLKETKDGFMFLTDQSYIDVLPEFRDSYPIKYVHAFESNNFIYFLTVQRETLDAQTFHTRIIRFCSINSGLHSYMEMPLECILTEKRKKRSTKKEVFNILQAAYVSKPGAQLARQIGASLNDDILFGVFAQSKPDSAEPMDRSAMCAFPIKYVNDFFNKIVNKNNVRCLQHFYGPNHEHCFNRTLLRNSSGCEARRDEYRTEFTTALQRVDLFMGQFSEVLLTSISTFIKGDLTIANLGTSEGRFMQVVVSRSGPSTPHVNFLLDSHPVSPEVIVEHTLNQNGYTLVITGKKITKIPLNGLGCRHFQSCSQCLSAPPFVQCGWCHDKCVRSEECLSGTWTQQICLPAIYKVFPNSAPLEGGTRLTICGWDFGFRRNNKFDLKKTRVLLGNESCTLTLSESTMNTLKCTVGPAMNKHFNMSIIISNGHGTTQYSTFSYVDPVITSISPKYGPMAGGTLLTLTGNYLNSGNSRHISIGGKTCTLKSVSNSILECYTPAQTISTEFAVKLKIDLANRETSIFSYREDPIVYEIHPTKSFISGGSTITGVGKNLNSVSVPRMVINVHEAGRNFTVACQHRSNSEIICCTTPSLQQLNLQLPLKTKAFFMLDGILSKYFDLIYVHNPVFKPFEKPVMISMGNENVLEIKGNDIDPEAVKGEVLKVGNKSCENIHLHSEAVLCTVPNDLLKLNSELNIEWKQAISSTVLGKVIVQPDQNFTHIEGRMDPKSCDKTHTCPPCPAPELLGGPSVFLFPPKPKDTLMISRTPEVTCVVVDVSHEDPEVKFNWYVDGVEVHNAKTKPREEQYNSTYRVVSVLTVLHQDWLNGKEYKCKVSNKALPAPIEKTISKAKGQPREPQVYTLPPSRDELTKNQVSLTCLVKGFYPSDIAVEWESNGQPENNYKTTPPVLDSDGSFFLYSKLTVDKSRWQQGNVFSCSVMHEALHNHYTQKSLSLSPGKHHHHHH

[4] = target: T3, recombinant human c-Met/Fc chimera (R&D …); assay: HGF-competition Alphascreen, EXP 1, second value
[5] = target: T4, recombinant human CTLA4/Fc chimera (R&D Systems) (human, UniProt P16410 37-162, limits assumed); assay: SPR (ProteOn), CTLA4/Fc captured on anti-human IgG(Fc)
T4 construct: control protein; not shown: Fc part of a bought protein, not described
T4 sequence (P16410 37-162 limits assumed, change not shown): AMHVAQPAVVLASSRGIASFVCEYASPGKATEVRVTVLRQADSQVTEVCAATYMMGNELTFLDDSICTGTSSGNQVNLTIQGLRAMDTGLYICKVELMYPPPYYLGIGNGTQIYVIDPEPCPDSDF
Experimental: (§1) Anti-human IgG(Fc) antibody (GE Healthcare) was immobilized on a ProteOn GLC Sensorchip (BioRad) via amine coupling on two ligand lanes at densities of approximately 5300 RU and 2700 RU. […] Regeneration of the surface was performed by an 80 seconds injection of 3M magnesium chloride at 25 μl/min (component of kit BR-1008-39, GE Healthcare).

[6] = target: T3, recombinant human c-Met/Fc chimera (R&D …); assay: SPR (ProteOn), c-Met/Fc captured on anti-human IgG(Fc)
Experimental: as §1
The experiment was performed as described in Example 5.

[7] = target: T3, recombinant human c-Met/Fc chimera (R&D …); assay: HGF-competition Alphascreen, EXP 2
[8] = target: T3, recombinant human c-Met/Fc chimera (R&D …); assay: HGF-competition Alphascreen
Human c-Met [9] = target: T1, Human c-Met; assay: cell-based or functional assay; remark: listed apart in the source
[10] = target: T3, recombinant human c-Met/Fc chimera (R&D …); assay: HGF-competition Alphascreen; remark: listed apart in the source
[11] = target: T3, recombinant human c-Met/Fc chimera (R&D …); assay: modified HGF-competition Alphascreen: 0.4 nM biotinylated HGF, 0.016 nM cMet/Fc

T1 sequence (P08581 25-1390 limits assumed): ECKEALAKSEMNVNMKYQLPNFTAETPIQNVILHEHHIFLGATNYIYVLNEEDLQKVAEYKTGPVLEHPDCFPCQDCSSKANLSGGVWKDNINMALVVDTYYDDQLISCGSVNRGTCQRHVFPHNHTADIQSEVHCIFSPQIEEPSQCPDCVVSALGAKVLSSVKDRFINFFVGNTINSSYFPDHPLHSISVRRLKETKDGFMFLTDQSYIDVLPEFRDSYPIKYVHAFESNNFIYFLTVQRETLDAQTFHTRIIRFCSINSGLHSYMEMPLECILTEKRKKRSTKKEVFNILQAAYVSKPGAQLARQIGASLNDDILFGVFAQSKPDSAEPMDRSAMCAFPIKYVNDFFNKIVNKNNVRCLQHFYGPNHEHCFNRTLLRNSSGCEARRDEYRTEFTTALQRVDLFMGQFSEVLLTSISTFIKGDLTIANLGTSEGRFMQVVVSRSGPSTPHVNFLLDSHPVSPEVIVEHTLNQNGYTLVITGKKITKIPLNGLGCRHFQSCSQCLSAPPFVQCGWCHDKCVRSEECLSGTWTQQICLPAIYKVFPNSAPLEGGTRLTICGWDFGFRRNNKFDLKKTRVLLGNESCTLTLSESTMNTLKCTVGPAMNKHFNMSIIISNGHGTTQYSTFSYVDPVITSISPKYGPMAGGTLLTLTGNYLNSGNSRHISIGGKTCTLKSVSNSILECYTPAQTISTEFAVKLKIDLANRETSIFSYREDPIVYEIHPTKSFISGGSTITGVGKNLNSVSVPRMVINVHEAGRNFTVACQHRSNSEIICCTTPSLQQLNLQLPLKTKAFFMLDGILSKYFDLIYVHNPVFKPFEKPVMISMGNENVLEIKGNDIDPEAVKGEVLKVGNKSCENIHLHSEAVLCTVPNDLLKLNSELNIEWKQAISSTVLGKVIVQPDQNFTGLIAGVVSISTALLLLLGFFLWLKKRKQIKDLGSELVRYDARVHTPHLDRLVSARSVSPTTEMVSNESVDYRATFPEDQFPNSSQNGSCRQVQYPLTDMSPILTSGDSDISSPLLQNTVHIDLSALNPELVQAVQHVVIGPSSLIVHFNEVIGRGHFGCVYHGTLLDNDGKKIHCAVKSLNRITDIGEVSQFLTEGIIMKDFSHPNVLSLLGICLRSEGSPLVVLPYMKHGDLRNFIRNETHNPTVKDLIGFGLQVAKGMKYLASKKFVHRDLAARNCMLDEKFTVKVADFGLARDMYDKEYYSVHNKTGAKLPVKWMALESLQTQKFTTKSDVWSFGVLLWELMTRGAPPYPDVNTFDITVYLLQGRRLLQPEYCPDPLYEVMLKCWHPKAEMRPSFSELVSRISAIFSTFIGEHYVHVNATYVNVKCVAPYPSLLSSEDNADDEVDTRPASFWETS

B1: 04E09 (L49S) (SEQ ID NO: 23) tagged with 3xFlag-His6 (VHH)
VHH: EVQLVESGGGLVQPGGSLRLSCAASGFILDYYAIGWFRQAPGKEREGVSCIDASDDITYYADSVKGRFTISRDNAKNTVYLQMNSLKPEDTGVYYCATPIGLSSSCLLEYDYDYWGQGTLVTVSS
- IC50, HGF-dependent c-Met phosphorylation in A549 tumor cells (Human c-Met [1]): 3.1 nM
- % inhibition (cynomolgus c-Met): 100%
- IC50 (cynomolgus c-Met): 0.61 nM

B2: A00790068 (VHH)
VHH: B1 VHH with S49L, A75S, K87R
notes: the entry as printed already holds the 3xFLAG-His6 tag; also called 04E09 (A74S, K83R, Q108L)
- IC50, c-Met phosphorylation, EXP 1 (Human c-Met [2]): 1.96 nM
- IC50 [3]: 0.104 nM
- IC50 [4]: 0.072 nM

B3: 04E09 (C50S/C100bG) (SEQ ID NO: 24) tagged with 3xFlag-His6 (VHH)
VHH: B1 VHH with S49L, C50S, C106G
- binding result [5]: no binding
- Kd [6]: 4.09 nM
- koff [6]: 0.000788 s⁻¹
- kon [6]: 193000 M⁻¹ s⁻¹
- % inhibition (cynomolgus c-Met): 100%
- IC50 (cynomolgus c-Met): 20 nM
- factor of decrease in potency against parental SEQ ID NO: 7 (cynomolgus c-Met): ~35 fold

B4: A00790069 (VHH)
VHH: B1 VHH with S49L, A75S, K87R, G92A
notes: the entry as printed already holds the 3xFLAG-His6 tag; also called 04E09 (A74S, K83R, G88A, Q108L)
- IC50, c-Met phosphorylation, EXP 1 (Human c-Met [2]): 2.05 nM
- IC50, c-Met phosphorylation, EXP 2 (Human c-Met [2]): 2.45 nM
- IC50 [3]: 0.107 nM
- IC50 [7]: 0.071 nM
- IC50 [4]: 0.046 nM

B5: 04E09 (C22A/C92S) (SEQ ID NO: 25) tagged with 3xFlag-His6 (VHH)
VHH: EVQLVESGGGLVQPGGSLRLSAAASGFILDYYAIGWFRQAPGKEREGVLCIDASDDITYYADSVKGRFTISRDNAKNTVYLQMNSLKPEDTGVYYSATPIGLSSSCLLEYDYDYWGQGTLVTVSSGAADYKDHDGDYKDHDIDYKDDDDKGAAHHHHHH
- IC50, HGF-dependent c-Met phosphorylation in A549 tumor cells (Human c-Met [1]): 3.8 nM
- binding result [5]: no binding
- Kd [6]: 0.0234 nM
- koff [6]: 7.9e-05 s⁻¹
- kon [6]: 3.37e+06 M⁻¹ s⁻¹
- % inhibition (cynomolgus c-Met): 101%
- IC50 (cynomolgus c-Met): 0.49 nM

B6: A00790105 tagged with 3xFlag-His6 (VHH)
VHH: B1 VHH with E1D, S49L, A75S, K87R, G92A
notes: also called 04E09 (E1D, A74S, K83R, G88A, Q108L)
- IC50, c-Met phosphorylation, EXP 2 (Human c-Met [2]): 2.33 nM
- IC50 [7]: 0.061 nM

B7: A007900744 (VHH)
VHH: VQLVESGGGLVQPGGSLRLSCAASGFTFDDYAIGWFRQAPGEEREGVSSISSTYGLTYYADSVKGRFTISRSNSKNTVYLQMNSLKPEDTAVYYCAATPIERLGLDAYEYDYWGQGTLVTVSS
notes: 33H10 variant; the entry holds the 3xFLAG-His6 tag
- IC50 [8]: 11 nM

B8: A007900184 (33H10-3xFLAG-His6) (VHH)
VHH: EVQLVESGGGLVQAGGSLRLSCAASGFTFDDYAIGWFRQAPGEEREGVSSISSTYGLTYYADSVKGRFTISSSNAKNTVYLQMNNLKPEDTAVYYCAATPIERLGLDAYEYDYWGQGTLVTVSS
notes: the entry holds the tag; also called A007900184 (wt)
- IC50, cell-based cMet phosphorylation assay (Human c-Met [9]): 79 nM
- IC50 [8]: 0.78 nM
- IC50 [10]: 0.61 nM

B9: A007900750 (VHH)
VHH: B8 VHH with A14P, E43K, S72R, A75S
notes: as for B7
- IC50 [8]: 42 nM

B10: A007900745 (VHH)
VHH: B8 VHH with A14P, S72R, S73D, A75S, N85S
notes: as for B7
- IC50 [8]: 18 nM

B11: A007900748 (VHH)
VHH: B8 VHH with A14P, E43K, S73D, A75S
notes: as for B7
- IC50 [8]: 3.5 nM

B12: A007901246 (VHH)
VHH: B8 VHH with A14P, T28A, S73D, A75S, N85S, K87R, E102G, R103L, L104I
notes: 33H10 variant, 3xFLAG-His6 tagged; the entry holds the tag; also called monovalent form of A007901256
- IC50, cell-based cMet phosphorylation assay (Human c-Met [9]): 3.44 nM
- IC50, cell-based proliferation assay, plate 1 (Human c-Met [9]): 1.88 nM
- IC50 [10]: 0.089 nM
- IC50 [11]: 0.048 nM

B13: A007900753 (VHH)
VHH: B8 VHH with A14P, E43K, S72R, S73D, A75S, N85S
notes: as for B7
- IC50 [8]: 100 nM

B14: A007900747 (VHH)
VHH: B8 VHH with A14P, E43K, A75S, N85S
notes: as for B7
- IC50 [8]: 2.5 nM

B15: A007900741 (VHH)
VHH: B8 VHH with A14P, S73D, A75S, N85S
notes: as for B7
- IC50 [8]: 0.85 nM

B16: A007901245 (VHH)
VHH: B8 VHH with A14P, S73D, A75S, N85S, K87R, E102G, R103L, L104I
notes: 33H10 variant, 3xFLAG-His6 tagged; the entry holds the tag; also called monovalent form of A007901255
- IC50, cell-based cMet phosphorylation assay (Human c-Met [9]): 5.41 nM
- IC50, cell-based proliferation assay, plate 1 (Human c-Met [9]): 3.69 nM
- IC50 [10]: 0.092 nM
- IC50 [11]: 0.091 nM

B17: A007901247 (VHH)
VHH: B8 VHH with A14P, E43K, S73D, A75S, N85S, K87R, E102G, R103L, L104I
notes: 33H10 variant, 3xFLAG-His6 tagged; the entry holds the tag
- IC50, cell-based cMet phosphorylation assay (Human c-Met [9]): 12.8 nM
- IC50 [10]: 0.27 nM

B18: A007901251 (VHH)
VHH: B8 VHH with A14P, E43K, E46L, S73D, A75S, N85S, K87R, E102G, R103L, L104I
notes: as for B17
- IC50, cell-based cMet phosphorylation assay (Human c-Met [9]): 4.98 nM
- IC50 [10]: 0.068 nM

B19: A007900752 (VHH)
VHH: B8 VHH with A14P, E43K, S72R, A75S, N85S
notes: as for B7
- IC50 [8]: 31 nM

B20: A007901249 (VHH)
VHH: B8 VHH with A14P, E46L, S73D, A75S, N85S, K87R, E102G, R103L, L104I
notes: 33H10 variant, 3xFLAG-His6 tagged; the entry holds the tag; also called monovalent form of A007901259
- IC50, cell-based cMet phosphorylation assay (Human c-Met [9]): 2.81 nM
- IC50, cell-based proliferation assay, plate 2 (Human c-Met [9]): 1.93 nM
- IC50 [10]: 0.08 nM
- IC50 [11]: 0.043 nM

B21: A007900740 (VHH)
VHH: B8 VHH with A14P, S73D, A75S
notes: as for B7
- IC50 [8]: 1.1 nM

B22: A007900739 (VHH)
VHH: B8 VHH with A14P, A75S, N85S
notes: as for B7
- IC50 [8]: 0.58 nM

B23: A007901253 (VHH)
VHH: B8 VHH with A14P, S63P, S73D, A75S, N85S, K87R, E102G, R103L, L104I
notes: as for B17
- IC50, cell-based cMet phosphorylation assay (Human c-Met [9]): 4.84 nM
- IC50 [10]: 0.071 nM

B24: A007900746 (VHH)
VHH: B8 VHH with A14P, E43K, A75S
notes: as for B7
- IC50 [8]: 2.5 nM

B25: A007900738 (VHH)
VHH: B8 VHH with A14P, A75S
notes: as for B7
- IC50 [8]: 0.69 nM

B26: A007901250 (VHH)
VHH: B8 VHH with A14P, T28A, E46L, S73D, A75S, N85S, K87R, E102G, R103L, L104I
notes: 33H10 variant, 3xFLAG-His6 tagged; the entry holds the tag; also called monovalent form of A007901260
- IC50, cell-based cMet phosphorylation assay (Human c-Met [9]): 2.34 nM
- IC50, cell-based proliferation assay, plate 1 (Human c-Met [9]): 2.29 nM
- IC50, cell-based proliferation assay, plate 2 (Human c-Met [9]): 1.32 nM
- IC50 [10]: 0.081 nM
- IC50 [11]: 0.035 nM

B27: A007901248 (VHH)
VHH: B8 VHH with A14P, T28A, E43K, S73D, A75S, N85S, K87R, E102G, R103L, L104I
notes: as for B17
- IC50, cell-based cMet phosphorylation assay (Human c-Met [9]): 11.5 nM
- IC50 [10]: 0.17 nM

B28: A007900751 (VHH)
VHH: B8 VHH with A14P, E43K, S72R, S73D, A75S
notes: as for B7
- IC50 [8]: 100 nM

B29: A007900742 (VHH)
VHH: B8 VHH with A14P, S72R, A75S
notes: as for B7
- IC50 [8]: 8.3 nM

B30: A007901252 (VHH)
VHH: EVQLVESGGGLVQPGGSLRLSCAASGFAFDDYAIGWFRQAPGKERLGVSSISSTYGLTYYADSVKGRFTISSDNSKNTVYLQMNSLRPEDTAVYYCAATPIGLIGLDAYEYDYWGQGTLVTVSS
notes: as for B17
- IC50, cell-based cMet phosphorylation assay (Human c-Met [9]): 4.16 nM
- IC50 [10]: 0.12 nM

B31: A007900749 (VHH)
VHH: B8 VHH with A14P, E43K, S73D, A75S, N85S
notes: as for B7
- IC50 [8]: 3.4 nM

B32: A007900743 (VHH)
VHH: B8 VHH with A14P, S72R, S73D, A75S
notes: as for B7
- IC50 [8]: 26 nM

B33: A00790067 (VHH)
VHH: VQLVESGGGLVQPGGSLRLSCAASGFILDYYAIGWFRQAPGKEREGVLCIDASDDITYYADSVKGRFTISRDNAKNTVYLQMNSLKPEDTGVYYCATPIGLSSSCLLEYDYDYWGQGTLVTVSS
notes: the entry as printed already holds the 3xFLAG-His6 tag; also called 04E09 (Q108L)
- IC50, c-Met phosphorylation, EXP 1 (Human c-Met [2]): 2.21 nM
- IC50 [3]: 0.069 nM
- IC50 [4]: 0.069 nM
